In patent US20200199241A1 (Chugai, published 2020):

Key:
Test in all cases: SPR (Biacore);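 further: antibody variants captured on sensor chip, Fcγ receptor flowed over at 25 °C, bound receptor normalized to amount of captured antibody, expressed relative to reference antibody set as 100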
human FcγRIa = biological target: T1, human FcγRIa (human, UniProt P12314 16-292, limits assumed)
T1 construct: also called FcgRIa; FcγRI (CD64)
Procedure: (§1) Interaction between each modified antibody and Fcγ receptor prepared in the manner described above was analyzed using the BIACORE™ T100 surface plasmon resonance system (GE Healthcare), BIACORE™ T200 surface plasmon resonance system (GE Healthcare), BIACORE™ A100 surface plasmon resonance system or BIACORE™ 4000 surface plasmon resonance system. HBS-EP+ (GE Healthcare) was used for the running buffer, and measurements were carried out at 25° C. The chips used were chips in which antigen peptides, Protein A (Thermo Scientific), Protein A/G (Thermo Scientific) or Protein L (ACTIGEN® protein (Alltech or BioVision) were immobilized on the Series S Sensor Chip CMS (GE Healthcare) or Series S Sensor Chip CM4 (GE Healthcare) by amine coupling, or chips in which preliminarily biotinylated antigen peptides were allowed to interact and then immobilized on the Series S Sensor Chip SA (certified) (GE Healthcare). The target antibodies were captured on these sensor chips, Fcγ receptor diluted with the running buffer was allowed to interact, followed by measurement of the amount of bound antibody. The amounts bound were compared between antibodies. However, since the amount of Fcγ receptor bound depends on the amount of captured antibody, the values used for comparison were first corrected by dividing the amount of Fcγ receptor bound by the captured amount of each antibody. Through reaction with 10 mM glycine-HCl at pH 1.5, the sensor chips were regenerated by washing off antibody captured on the sensor chips and used repeatedly.
(§2) Binding strength was evaluated according to the following method based on the results of analyzing the interaction with each FcγR. […] That value was then further multiplied by 100, and the resulting value was used as an indicator of relative binding activity to each FcγR.

human FcγRIIIa(F) = biological target: T2, human FcγRIIIa(F) (human, UniProt P08637 17-208, limits assumed)
T2 construct: also called FcgRIIIaF; allotype F158
Procedure: as §1, §2

human FcγRIIa(R) = biological target: T3, human FcγRIIa(R) (human, UniProt P12318 36-217)
T3 construct: also called FcgRIIaR; FcγRIIa type R
T3 chain: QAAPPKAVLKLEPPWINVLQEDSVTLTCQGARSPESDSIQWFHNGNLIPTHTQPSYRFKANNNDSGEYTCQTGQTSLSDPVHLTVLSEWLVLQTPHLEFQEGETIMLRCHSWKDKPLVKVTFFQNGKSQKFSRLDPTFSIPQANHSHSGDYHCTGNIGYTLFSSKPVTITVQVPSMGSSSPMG
Procedure: as §1, §2

human FcγRIIb = biological target: T4, human FcγRIIb (human, UniProt P31994 43-217, limits assumed)
T4 construct: also called FcgRIIb
T4 sequence: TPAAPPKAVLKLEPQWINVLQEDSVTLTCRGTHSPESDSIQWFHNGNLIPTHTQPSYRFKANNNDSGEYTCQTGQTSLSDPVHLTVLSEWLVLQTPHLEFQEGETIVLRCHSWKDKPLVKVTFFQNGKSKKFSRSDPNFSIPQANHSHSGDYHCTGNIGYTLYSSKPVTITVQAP
Procedure: as §1, §2

human FcγRIIa(H) = biological target: T5, human FcγRIIa(H) (human, UniProt P12318 36-217)
T5 construct: also called FcgRIIaH; FcγRIIa type H
T5 sequence: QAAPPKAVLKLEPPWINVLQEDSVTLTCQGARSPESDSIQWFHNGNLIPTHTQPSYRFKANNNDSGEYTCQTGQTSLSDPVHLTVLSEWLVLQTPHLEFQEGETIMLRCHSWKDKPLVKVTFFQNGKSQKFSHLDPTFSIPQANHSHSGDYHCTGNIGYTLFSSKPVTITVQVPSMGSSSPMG
Procedure: as §1, §2

T1 sequence (P12314 16-292 limits assumed): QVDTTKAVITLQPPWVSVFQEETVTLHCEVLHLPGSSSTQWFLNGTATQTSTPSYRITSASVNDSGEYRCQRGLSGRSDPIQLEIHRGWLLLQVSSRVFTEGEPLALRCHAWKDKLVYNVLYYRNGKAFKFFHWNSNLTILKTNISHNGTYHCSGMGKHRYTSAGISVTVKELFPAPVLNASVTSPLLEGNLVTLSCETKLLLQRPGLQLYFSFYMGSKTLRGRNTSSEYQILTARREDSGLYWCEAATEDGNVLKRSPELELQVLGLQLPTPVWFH
T2 sequence (P08637 other isoform, or with tags, fused parts or gaps limits assumed): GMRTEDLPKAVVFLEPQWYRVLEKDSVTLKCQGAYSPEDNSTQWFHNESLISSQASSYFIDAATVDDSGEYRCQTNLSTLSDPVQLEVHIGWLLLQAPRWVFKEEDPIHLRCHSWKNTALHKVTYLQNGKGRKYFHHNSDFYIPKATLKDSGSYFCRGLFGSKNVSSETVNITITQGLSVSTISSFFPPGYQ

B1: GpH7-B3 variant D265V/GpL16-k0 (antibody, human IgG1)
heavy: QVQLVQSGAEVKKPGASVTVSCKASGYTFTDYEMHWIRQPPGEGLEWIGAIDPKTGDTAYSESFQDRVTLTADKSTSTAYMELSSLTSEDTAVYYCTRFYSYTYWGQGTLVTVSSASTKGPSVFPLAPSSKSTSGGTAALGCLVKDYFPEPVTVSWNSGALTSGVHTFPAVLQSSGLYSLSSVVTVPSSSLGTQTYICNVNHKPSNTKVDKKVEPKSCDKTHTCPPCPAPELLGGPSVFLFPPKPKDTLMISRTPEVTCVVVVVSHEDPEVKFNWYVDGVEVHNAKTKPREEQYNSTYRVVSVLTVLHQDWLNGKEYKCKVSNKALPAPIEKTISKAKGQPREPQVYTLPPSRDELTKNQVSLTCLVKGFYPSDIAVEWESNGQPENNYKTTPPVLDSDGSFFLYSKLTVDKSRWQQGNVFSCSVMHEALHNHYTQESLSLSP
light: DIVMTQSPLSLPVTPGEPASISCQASESLVHSNRNTYLHWYLQKPGQSPQLLIYKVSNRFSGVPDRFSGSGSGTDFTLKISRVEAEDVGVYYCSQNTHVPPTFGQGTKVEIE
notes: copies: 2 + 2
- relative binding activity (human FcγRIa): 3 % of GpH7-B3/GpL16-k0
- relative binding activity (human FcγRIIIa(F)): -1 % of GpH7-B3/GpL16-k0
- relative binding activity (human FcγRIIa(R)): -1 % of GpH7-B3/GpL16-k0
- relative binding activity (human FcγRIIb): -1 % of GpH7-B3/GpL16-k0
- relative binding activity (human FcγRIIa(H)): 0 % of GpH7-B3/GpL16-k0

B2: GpH7-B3 variant E269M/GpL16-k0 (antibody, human IgG1)
heavy: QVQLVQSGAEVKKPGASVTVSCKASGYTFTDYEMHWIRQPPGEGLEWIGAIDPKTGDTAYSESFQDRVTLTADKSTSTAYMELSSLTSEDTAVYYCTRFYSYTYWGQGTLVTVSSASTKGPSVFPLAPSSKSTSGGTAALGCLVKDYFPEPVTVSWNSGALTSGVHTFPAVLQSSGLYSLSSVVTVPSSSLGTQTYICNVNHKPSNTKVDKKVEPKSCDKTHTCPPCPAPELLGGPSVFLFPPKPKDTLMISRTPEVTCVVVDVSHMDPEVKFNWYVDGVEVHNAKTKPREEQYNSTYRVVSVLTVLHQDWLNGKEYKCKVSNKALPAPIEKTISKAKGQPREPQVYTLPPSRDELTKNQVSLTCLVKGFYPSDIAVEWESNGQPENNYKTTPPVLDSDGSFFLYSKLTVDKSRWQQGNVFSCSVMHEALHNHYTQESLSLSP
light: DIVMTQSPLSLPVTPGEPASISCQASESLVHSNRNTYLHWYLQKPGQSPQLLIYKVSNRFSGVPDRFSGSGSGTDFTLKISRVEAEDVGVYYCSQNTHVPPTFGQGTKVEIE
notes: copies: 2 + 2
- relative binding activity (human FcγRIa): 98 % of GpH7-B3/GpL16-k0
- relative binding activity (human FcγRIIIa(F)): 20 % of GpH7-B3/GpL16-k0
- relative binding activity (human FcγRIIa(R)): 23 % of GpH7-B3/GpL16-k0
- relative binding activity (human FcγRIIb): 15 % of GpH7-B3/GpL16-k0
- relative binding activity (human FcγRIIa(H)): 50 % of GpH7-B3/GpL16-k0

B3: GpH7-B3 variant D270P/GpL16-k0 (antibody, human IgG1)
heavy: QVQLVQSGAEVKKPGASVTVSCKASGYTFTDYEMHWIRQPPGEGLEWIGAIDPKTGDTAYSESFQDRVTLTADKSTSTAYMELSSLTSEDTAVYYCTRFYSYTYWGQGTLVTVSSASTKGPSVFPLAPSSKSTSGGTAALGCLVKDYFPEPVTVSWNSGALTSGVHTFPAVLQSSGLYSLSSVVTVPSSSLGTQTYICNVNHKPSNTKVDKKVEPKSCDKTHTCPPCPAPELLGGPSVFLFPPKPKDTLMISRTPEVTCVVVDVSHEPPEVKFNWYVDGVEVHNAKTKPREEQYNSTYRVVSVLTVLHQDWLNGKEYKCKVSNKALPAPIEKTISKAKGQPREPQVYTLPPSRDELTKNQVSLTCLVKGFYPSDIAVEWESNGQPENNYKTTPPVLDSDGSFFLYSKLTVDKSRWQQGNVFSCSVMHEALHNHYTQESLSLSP
light: DIVMTQSPLSLPVTPGEPASISCQASESLVHSNRNTYLHWYLQKPGQSPQLLIYKVSNRFSGVPDRFSGSGSGTDFTLKISRVEAEDVGVYYCSQNTHVPPTFGQGTKVEIE
notes: copies: 2 + 2
- relative binding activity (human FcγRIa): 64 % of GpH7-B3/GpL16-k0
- relative binding activity (human FcγRIIIa(F)): -1 % of GpH7-B3/GpL16-k0
- relative binding activity (human FcγRIIa(R)): -3 % of GpH7-B3/GpL16-k0
- relative binding activity (human FcγRIIb): -1 % of GpH7-B3/GpL16-k0
- relative binding activity (human FcγRIIa(H)): 0 % of GpH7-B3/GpL16-k0

B4: GpH7-B3 variant D265N/GpL16-k0 (antibody, human IgG1)
heavy: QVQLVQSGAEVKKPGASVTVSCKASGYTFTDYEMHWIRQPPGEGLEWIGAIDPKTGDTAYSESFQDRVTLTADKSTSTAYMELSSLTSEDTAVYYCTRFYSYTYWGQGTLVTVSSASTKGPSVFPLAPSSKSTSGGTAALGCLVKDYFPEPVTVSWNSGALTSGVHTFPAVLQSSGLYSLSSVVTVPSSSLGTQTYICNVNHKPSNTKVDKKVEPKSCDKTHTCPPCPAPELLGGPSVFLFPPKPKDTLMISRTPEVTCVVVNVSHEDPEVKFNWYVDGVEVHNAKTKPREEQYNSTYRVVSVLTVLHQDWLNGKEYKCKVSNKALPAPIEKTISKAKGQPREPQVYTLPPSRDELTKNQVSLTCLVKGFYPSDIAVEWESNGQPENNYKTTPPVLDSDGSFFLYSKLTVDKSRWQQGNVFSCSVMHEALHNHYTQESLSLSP
light: DIVMTQSPLSLPVTPGEPASISCQASESLVHSNRNTYLHWYLQKPGQSPQLLIYKVSNRFSGVPDRFSGSGSGTDFTLKISRVEAEDVGVYYCSQNTHVPPTFGQGTKVEIE
notes: copies: 2 + 2
- relative binding activity (human FcγRIa): 3 % of GpH7-B3/GpL16-k0
- relative binding activity (human FcγRIIIa(F)): -1 % of GpH7-B3/GpL16-k0
- relative binding activity (human FcγRIIa(R)): -1 % of GpH7-B3/GpL16-k0
- relative binding activity (human FcγRIIb): -2 % of GpH7-B3/GpL16-k0
- relative binding activity (human FcγRIIa(H)): 0 % of GpH7-B3/GpL16-k0

B5: GpH7-B3 variant D270K/GpL16-k0 (antibody, human IgG1)
heavy: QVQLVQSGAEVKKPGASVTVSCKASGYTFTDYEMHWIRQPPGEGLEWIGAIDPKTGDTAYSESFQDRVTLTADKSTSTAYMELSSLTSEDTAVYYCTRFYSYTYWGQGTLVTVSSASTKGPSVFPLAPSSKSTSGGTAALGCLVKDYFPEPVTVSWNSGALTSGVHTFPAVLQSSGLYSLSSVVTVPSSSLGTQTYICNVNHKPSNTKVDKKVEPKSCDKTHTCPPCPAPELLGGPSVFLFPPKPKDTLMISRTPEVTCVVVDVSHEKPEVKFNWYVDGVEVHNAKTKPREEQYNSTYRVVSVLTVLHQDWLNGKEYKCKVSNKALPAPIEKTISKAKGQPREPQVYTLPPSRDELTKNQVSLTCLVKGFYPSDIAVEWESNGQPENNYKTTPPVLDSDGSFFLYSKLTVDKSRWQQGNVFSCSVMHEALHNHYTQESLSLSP
light: DIVMTQSPLSLPVTPGEPASISCQASESLVHSNRNTYLHWYLQKPGQSPQLLIYKVSNRFSGVPDRFSGSGSGTDFTLKISRVEAEDVGVYYCSQNTHVPPTFGQGTKVEIE
notes: copies: 2 + 2
- relative binding activity (human FcγRIa): 45 % of GpH7-B3/GpL16-k0
- relative binding activity (human FcγRIIIa(F)): 5 % of GpH7-B3/GpL16-k0
- relative binding activity (human FcγRIIa(R)): -4 % of GpH7-B3/GpL16-k0
- relative binding activity (human FcγRIIb): -5 % of GpH7-B3/GpL16-k0
- relative binding activity (human FcγRIIa(H)): 16 % of GpH7-B3/GpL16-k0

B6: GpH7-B3 variant D265L/GpL16-k0 (antibody, human IgG1)
heavy: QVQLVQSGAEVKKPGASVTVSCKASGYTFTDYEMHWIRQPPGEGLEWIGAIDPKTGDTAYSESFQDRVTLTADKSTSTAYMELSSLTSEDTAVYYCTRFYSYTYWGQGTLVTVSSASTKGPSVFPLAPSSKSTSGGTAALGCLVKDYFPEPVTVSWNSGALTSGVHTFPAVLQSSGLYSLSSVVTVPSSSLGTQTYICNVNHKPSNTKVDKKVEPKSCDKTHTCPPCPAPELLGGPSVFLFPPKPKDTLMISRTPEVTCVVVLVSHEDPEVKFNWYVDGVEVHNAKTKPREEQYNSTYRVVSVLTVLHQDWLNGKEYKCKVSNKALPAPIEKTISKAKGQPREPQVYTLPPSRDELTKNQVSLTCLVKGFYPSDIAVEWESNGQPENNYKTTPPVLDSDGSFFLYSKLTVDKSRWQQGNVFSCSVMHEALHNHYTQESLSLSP
light: DIVMTQSPLSLPVTPGEPASISCQASESLVHSNRNTYLHWYLQKPGQSPQLLIYKVSNRFSGVPDRFSGSGSGTDFTLKISRVEAEDVGVYYCSQNTHVPPTFGQGTKVEIE
notes: copies: 2 + 2
- relative binding activity (human FcγRIa): 7 % of GpH7-B3/GpL16-k0
- relative binding activity (human FcγRIIIa(F)): -1 % of GpH7-B3/GpL16-k0
- relative binding activity (human FcγRIIa(R)): 0 % of GpH7-B3/GpL16-k0
- relative binding activity (human FcγRIIb): 0 % of GpH7-B3/GpL16-k0
- relative binding activity (human FcγRIIa(H)): 0 % of GpH7-B3/GpL16-k0

B7: GpH7-B3 variant D265R/GpL16-k0 (antibody, human IgG1)
heavy: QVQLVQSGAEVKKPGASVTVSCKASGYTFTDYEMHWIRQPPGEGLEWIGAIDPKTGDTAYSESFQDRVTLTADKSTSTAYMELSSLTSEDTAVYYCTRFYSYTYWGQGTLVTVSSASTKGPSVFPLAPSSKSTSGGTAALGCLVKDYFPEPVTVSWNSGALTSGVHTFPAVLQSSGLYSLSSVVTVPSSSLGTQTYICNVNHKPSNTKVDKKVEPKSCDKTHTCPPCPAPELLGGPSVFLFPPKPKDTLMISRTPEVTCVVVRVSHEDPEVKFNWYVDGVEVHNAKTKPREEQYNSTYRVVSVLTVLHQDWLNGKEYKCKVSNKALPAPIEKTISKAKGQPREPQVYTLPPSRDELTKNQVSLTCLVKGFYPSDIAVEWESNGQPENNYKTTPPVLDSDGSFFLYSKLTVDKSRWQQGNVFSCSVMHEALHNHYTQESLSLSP
light: DIVMTQSPLSLPVTPGEPASISCQASESLVHSNRNTYLHWYLQKPGQSPQLLIYKVSNRFSGVPDRFSGSGSGTDFTLKISRVEAEDVGVYYCSQNTHVPPTFGQGTKVEIE
notes: copies: 2 + 2
- relative binding activity (human FcγRIa): 5 % of GpH7-B3/GpL16-k0
- relative binding activity (human FcγRIIIa(F)): -1 % of GpH7-B3/GpL16-k0
- relative binding activity (human FcγRIIa(R)): -1 % of GpH7-B3/GpL16-k0
- relative binding activity (human FcγRIIb): -1 % of GpH7-B3/GpL16-k0
- relative binding activity (human FcγRIIa(H)): 0 % of GpH7-B3/GpL16-k0

B8: GpH7-B3 variant E269G/GpL16-k0 (antibody, human IgG1)
heavy: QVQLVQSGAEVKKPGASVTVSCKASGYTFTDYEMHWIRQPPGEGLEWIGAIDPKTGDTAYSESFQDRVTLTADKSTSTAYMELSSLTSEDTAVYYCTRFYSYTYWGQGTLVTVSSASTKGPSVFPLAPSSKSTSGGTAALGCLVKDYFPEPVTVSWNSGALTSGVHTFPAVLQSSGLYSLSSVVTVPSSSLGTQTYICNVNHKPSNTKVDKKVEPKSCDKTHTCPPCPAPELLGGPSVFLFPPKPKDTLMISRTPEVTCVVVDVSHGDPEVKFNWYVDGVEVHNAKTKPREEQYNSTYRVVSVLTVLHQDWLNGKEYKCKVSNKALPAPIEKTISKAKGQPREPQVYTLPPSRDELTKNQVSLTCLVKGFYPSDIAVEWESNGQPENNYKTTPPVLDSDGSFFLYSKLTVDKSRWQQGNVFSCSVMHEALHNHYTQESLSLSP
light: DIVMTQSPLSLPVTPGEPASISCQASESLVHSNRNTYLHWYLQKPGQSPQLLIYKVSNRFSGVPDRFSGSGSGTDFTLKISRVEAEDVGVYYCSQNTHVPPTFGQGTKVEIE
notes: copies: 2 + 2
- relative binding activity (human FcγRIa): 94 % of GpH7-B3/GpL16-k0
- relative binding activity (human FcγRIIIa(F)): 27 % of GpH7-B3/GpL16-k0
- relative binding activity (human FcγRIIa(R)): 38 % of GpH7-B3/GpL16-k0
- relative binding activity (human FcγRIIb): 25 % of GpH7-B3/GpL16-k0
- relative binding activity (human FcγRIIa(H)): 46 % of GpH7-B3/GpL16-k0

B9: GpH7-B3 variant D265Y/GpL16-k0 (antibody, human IgG1)
heavy: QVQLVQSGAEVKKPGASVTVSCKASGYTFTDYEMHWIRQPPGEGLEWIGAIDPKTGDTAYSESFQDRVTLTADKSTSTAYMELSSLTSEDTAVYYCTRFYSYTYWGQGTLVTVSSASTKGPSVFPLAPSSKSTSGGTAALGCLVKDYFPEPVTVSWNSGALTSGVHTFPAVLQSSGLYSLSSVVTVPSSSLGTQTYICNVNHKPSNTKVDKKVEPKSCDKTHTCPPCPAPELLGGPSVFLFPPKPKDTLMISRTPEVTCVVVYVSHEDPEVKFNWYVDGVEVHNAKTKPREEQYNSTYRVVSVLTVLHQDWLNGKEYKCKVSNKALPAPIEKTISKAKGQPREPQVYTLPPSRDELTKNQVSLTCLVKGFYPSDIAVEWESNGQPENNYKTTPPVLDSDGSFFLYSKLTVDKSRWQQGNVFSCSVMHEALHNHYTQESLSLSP
light: DIVMTQSPLSLPVTPGEPASISCQASESLVHSNRNTYLHWYLQKPGQSPQLLIYKVSNRFSGVPDRFSGSGSGTDFTLKISRVEAEDVGVYYCSQNTHVPPTFGQGTKVEIE
notes: copies: 2 + 2
- relative binding activity (human FcγRIa): 5 % of GpH7-B3/GpL16-k0
- relative binding activity (human FcγRIIIa(F)): -1 % of GpH7-B3/GpL16-k0
- relative binding activity (human FcγRIIa(R)): -1 % of GpH7-B3/GpL16-k0
- relative binding activity (human FcγRIIb): -2 % of GpH7-B3/GpL16-k0
- relative binding activity (human FcγRIIa(H)): 0 % of GpH7-B3/GpL16-k0

B10: GpH7-B3 variant E269F/GpL16-k0 (antibody, human IgG1)
heavy: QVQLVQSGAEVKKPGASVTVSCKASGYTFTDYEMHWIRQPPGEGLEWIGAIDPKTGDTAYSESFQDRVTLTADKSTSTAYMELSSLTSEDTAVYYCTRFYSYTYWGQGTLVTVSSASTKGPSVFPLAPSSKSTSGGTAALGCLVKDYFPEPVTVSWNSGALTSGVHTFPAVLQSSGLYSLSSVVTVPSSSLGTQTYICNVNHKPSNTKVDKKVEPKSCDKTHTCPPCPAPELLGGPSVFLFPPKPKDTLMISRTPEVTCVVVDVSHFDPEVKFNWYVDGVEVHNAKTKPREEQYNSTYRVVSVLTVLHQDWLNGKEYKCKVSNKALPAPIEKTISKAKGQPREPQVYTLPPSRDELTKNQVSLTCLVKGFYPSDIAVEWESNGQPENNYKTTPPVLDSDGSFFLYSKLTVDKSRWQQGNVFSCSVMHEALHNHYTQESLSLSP
light: DIVMTQSPLSLPVTPGEPASISCQASESLVHSNRNTYLHWYLQKPGQSPQLLIYKVSNRFSGVPDRFSGSGSGTDFTLKISRVEAEDVGVYYCSQNTHVPPTFGQGTKVEIE
notes: copies: 2 + 2
- relative binding activity (human FcγRIa): 99 % of GpH7-B3/GpL16-k0
- relative binding activity (human FcγRIIIa(F)): 10 % of GpH7-B3/GpL16-k0
- relative binding activity (human FcγRIIa(R)): 19 % of GpH7-B3/GpL16-k0
- relative binding activity (human FcγRIIb): 13 % of GpH7-B3/GpL16-k0
- relative binding activity (human FcγRIIa(H)): 41 % of GpH7-B3/GpL16-k0

B11: GpH7-B3 variant E269A/GpL16-k0 (antibody, human IgG1)
heavy: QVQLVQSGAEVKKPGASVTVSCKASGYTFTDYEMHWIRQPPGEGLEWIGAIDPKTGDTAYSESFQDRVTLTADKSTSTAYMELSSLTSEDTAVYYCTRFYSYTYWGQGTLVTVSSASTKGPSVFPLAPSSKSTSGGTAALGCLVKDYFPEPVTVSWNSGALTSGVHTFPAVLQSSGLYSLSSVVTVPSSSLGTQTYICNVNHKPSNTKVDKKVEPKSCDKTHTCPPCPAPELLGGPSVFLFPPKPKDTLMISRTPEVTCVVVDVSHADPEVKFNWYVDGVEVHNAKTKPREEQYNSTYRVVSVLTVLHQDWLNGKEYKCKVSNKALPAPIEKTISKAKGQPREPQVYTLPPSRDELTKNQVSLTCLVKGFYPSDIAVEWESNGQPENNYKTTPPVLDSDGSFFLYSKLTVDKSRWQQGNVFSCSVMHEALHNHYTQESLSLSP
light: DIVMTQSPLSLPVTPGEPASISCQASESLVHSNRNTYLHWYLQKPGQSPQLLIYKVSNRFSGVPDRFSGSGSGTDFTLKISRVEAEDVGVYYCSQNTHVPPTFGQGTKVEIE
notes: copies: 2 + 2
- relative binding activity (human FcγRIa): 93 % of GpH7-B3/GpL16-k0
- relative binding activity (human FcγRIIIa(F)): 28 % of GpH7-B3/GpL16-k0
- relative binding activity (human FcγRIIa(R)): 20 % of GpH7-B3/GpL16-k0
- relative binding activity (human FcγRIIb): 13 % of GpH7-B3/GpL16-k0
- relative binding activity (human FcγRIIa(H)): 51 % of GpH7-B3/GpL16-k0
